From patent publication US20250207140 come the findings set out here.

The data set addresses SARS-CoV-2 spike protein (original strain) (SARS-CoV-2) (UniProt P0DTC2). In words: flow.

As to Control (-) Apt targeting CD8, the Kd (in general, the constant that tells how readily two partners part at equilibrium) stood at 312 nM.
